The source of these data is paper PMC3289617, “Biochemical, Mutational and In Silico Structural Evidence for a Functional Dimeric Form of the Ornithine Decarboxylase from Entamoeba histolytica” (PLoS Neglected Tropical Diseases, 2012).

As a reminder, the stoichiometry N is a count of units in the complex or per binding partner.

Data set [1] addresses EhODC Lys157Ala mutant (Entamoeba histolytica). The data set can be described thus: SEC; HiLoad 16/60 Superdex 200, buffer B (50 mM Tris-HCl pH 7.5, 250 mM NaCl, 0.2 mM DTT, 5% glycerol), 500 µl of ~10 mg/ml protein, 0.5 ml/min, calibrated with HMW standards; the wild type was also run after 4 h at 4°C with 2 M or 4 M NaCl or urea (partial dissociation to monomer). (In general: In gel filtration, larger molecules generally elute earlier.)

Data set [2] concerns the target EhODC Lys57Ala mutant (Entamoeba histolytica). The data set can be described thus: SEC; gel filtration of the active-site mutants, data not shown.
The target of data set [3] is EhODC Cys334Ala mutant (Entamoeba histolytica).
Data set [4] concerns the target EhODC Gly361Tyr mutant (Entamoeba histolytica). The data set can be described thus: SEC; HiLoad 16/60 Superdex 200, buffer B (50 mM Tris-HCl pH 7.5, 250 mM NaCl, 0.2 mM DTT, 5% glycerol), 500 µl of ~10 mg/ml protein, 0.5 ml/min, calibrated with HMW standards; the wild type was also run after 4 h at 4°C with 2 M or 4 M NaCl or urea (partial dissociation to monomer).
Data set [5] has as its target EhODC Cys334Ala mutant (Entamoeba histolytica). The data set can be described thus: SEC; gel filtration of the active-site mutants, data not shown.
Data set [6] concerns the molecule itself. The data set can be described thus: cross-linking; glutaraldehyde vapour (12.5%, acidified) over a hanging drop of 15 µl protein at 1 mg/ml in 20 mM sodium phosphate pH 7.5, 37°C, 10 min; 12% SDS-PAGE, Coomassie.

For EhODC Lys157Ala mutant (enzyme), the stoichiometry N in data set [1] came out at 2.
Molecule EhODC Lys57Ala mutant (enzyme) showed a stoichiometry N in data set [2] of 2. In data set [3], this molecule had an ornithine decarboxylase activity (colorimetric DAO/HRP assay) of the two inactive mutants mixed in equal concentration (1:1), relative to wild type; each mutant alone ~2% (% of wild-type activity) of 29.
Regarding EhODC Gly361Tyr mutant (enzyme), in data set [4], the stoichiometry N amounted to 2.
EhODC Cys334Ala mutant (enzyme) yielded a stoichiometry N in data set [5] of 2.

B1: Ornithine decarboxylase from Entamoeba histolytica (EhODC), wild type (enzyme, UniProt Q58P26 1-413, looked up)
chain: MKQTSLEVKEFALNLISQFEPENQPLGFWIFDTEGVEKAVERWKKNMPTVRPCFAVKCNPEPHLVKLLGELGCGFDCASLNEIKEVLDLGFNPEDITYSQTFKPYNQLIEASHLGINHTIVDSIDEVQKIAKYAPKMGIMIRIMENDTSAGHVFGEKFGLHDDEVEIVLKEIKDKGLNLDGVHFHVGSDSHNSEVFTKALTKARNTVTLAEQFGMKPYLIDIGGGFSQVAPFEEFAATIEKTIKELEFPERTRFIAEPGRYMASNAFHLVSSLHGKRVRIQNGKKQIEYTSGDGLHGSFGCCIWFEKQKSCECITQKVNENTKMYESIIYGPSCNGSDKVATQELPEMEPGKDWLLFPNMGAYTISMATNFNGFEERNHVIYTLPLKSTKIIQIPKSIECNSVPSLNGIPHYA
notes: Ornithine decarboxylase, Entamoeba histolytica, NCBI AAX35675, 413 amino acids, predicted 46.43 kDa; full-length gene in pET30a; The His tag is followed by an enterokinase site and was removed before gel filtration; PLP is the cofactor; also called E. histolytica ODC; source: E. coli BL21 (DE3), purified (HisTrap HP, enterokinase cleavage, second HisTrap, Superdex 200); not shown: His6, …
For B1, in data set [6], the “stoichiometry N” value turned out to be 2.
